Measured values: publication PMC3734082 (The Journal of Cell Biology, 2013)
Numbering of substitutions follows the chain as printed.

Key:
[1] = target: T1, MBP-CHC(1–1074)-His6 C+ mutant (UniProt Q00610 1-1074, T87A | Q89A | K96E | K98E); assay: pull-down
T1 sequence (looked up): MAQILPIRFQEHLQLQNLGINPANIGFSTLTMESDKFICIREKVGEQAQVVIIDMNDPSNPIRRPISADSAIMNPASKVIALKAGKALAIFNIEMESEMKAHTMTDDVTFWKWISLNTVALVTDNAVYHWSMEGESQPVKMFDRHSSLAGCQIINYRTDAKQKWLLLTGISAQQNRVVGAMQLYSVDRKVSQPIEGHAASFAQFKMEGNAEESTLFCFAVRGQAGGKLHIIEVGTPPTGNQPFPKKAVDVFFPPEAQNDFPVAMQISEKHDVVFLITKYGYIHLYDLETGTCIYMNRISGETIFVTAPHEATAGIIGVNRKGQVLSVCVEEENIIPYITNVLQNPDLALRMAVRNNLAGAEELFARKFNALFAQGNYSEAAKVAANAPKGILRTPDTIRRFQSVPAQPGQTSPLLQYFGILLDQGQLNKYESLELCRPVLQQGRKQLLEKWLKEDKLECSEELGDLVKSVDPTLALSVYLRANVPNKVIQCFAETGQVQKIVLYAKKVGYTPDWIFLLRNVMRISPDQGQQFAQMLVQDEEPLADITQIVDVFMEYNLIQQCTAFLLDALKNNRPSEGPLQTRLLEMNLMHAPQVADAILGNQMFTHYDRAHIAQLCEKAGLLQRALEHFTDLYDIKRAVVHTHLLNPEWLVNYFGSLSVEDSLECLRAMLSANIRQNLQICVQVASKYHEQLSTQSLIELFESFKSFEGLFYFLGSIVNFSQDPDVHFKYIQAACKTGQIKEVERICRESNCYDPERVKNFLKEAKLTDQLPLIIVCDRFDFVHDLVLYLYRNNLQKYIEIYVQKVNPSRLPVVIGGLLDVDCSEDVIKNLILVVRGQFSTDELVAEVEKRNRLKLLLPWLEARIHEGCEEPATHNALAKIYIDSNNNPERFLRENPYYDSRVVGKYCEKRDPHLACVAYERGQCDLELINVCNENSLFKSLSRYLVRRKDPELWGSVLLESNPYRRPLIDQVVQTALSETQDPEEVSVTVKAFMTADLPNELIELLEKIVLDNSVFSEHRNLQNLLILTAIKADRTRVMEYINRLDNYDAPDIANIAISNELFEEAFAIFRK

[2] = target: T2, MBP-CHC(1–1074)-His6 (UniProt Q00610 1-1074); assay: pull-down
T2 sequence (looked up): T1 sequence (looked up) with A87T, A89Q, E96K, E98K

binding result [1]: binds | binding result [2]: binds
B1: GST-TACC3-His6, phosphorylated with Aurora A/TPX2 (natural protein)
chain: not shown
modifications: phosphorylated in vitro with Aurora A/TPX2 (phosphoserine at 558, pS558)
